The test addresses T1, His-VPS41 (human, UniProt P49754 1-854).
T1 sequence: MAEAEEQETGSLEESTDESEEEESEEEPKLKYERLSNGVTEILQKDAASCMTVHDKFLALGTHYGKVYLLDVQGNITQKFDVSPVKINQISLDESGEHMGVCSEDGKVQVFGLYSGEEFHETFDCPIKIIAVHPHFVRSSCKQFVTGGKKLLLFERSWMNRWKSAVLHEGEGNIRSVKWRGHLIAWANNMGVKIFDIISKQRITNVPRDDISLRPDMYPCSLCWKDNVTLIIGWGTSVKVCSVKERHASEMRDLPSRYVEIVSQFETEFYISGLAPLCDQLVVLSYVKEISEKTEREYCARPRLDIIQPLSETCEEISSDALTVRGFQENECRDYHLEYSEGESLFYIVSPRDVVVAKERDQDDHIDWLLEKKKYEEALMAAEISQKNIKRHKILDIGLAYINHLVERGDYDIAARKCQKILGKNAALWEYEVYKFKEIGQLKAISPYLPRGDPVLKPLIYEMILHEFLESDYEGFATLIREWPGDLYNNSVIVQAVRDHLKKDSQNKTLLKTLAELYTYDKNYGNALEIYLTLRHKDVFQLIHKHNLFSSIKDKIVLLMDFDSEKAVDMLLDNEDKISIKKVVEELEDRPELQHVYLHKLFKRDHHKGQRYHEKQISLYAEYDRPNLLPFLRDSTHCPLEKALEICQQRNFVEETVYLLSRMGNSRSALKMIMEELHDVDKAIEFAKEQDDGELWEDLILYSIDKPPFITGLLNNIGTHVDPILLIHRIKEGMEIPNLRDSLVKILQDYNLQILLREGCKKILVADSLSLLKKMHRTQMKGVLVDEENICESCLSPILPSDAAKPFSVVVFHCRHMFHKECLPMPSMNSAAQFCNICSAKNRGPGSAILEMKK
Kind of test: pull-down.

This is an account of results in paper PMC4250914 (Scientific Reports, 2014).

B1: GST-RILP (natural protein)
chain: MEPRRAAPGVPGWGSREAAGSASAAELVYHLAGALGTELQDLARRFGPEAAAGLVPLVVRALELLEQAAVGPAPDSLQVSAQPAEQELRRLREENERLRRELRAGPQEERALLRQLKEVTDRQRDELRAHNRDLRQRGQETEALQEQLQRLLLVNAELRHKLAAMQTQLRAAQDRERERQQPGEAATPQAKERARGQAGRPGHQHGQEPEWATAGAGAPGNPEDPAEAAQQLGRPSEAGQCRFSREEFEQILQERNELKAKVFLLKEELAYFQRELLTDHRVPGLLLEAMKVAVRKQRKKIKAKMLGTPEEAESSEDEAGPWILLSDDKGDHPPPPESKIQSFFGLWYRGKAESSEDETSSPAPSKLGGEEEAQPQSPAPDPPCSALHEHLCLGASAAPEA
With B1, the binding result is “binds”.
